Laboratory results taken from US8263340B2, “Constitutively active mutants of the prolactin receptor” (Institut National de la Sante et de la Recherche Medicale …, priority 2007, dated 2012).

Key:
mutant I76V = experiment: Effect of PRLR inhibitors on proliferation of Ba/F3 cells expressing mutant I76V; format: cell-based, murine; conditions: 3 days
Experimental: (§1) Cells were starved for 6 hours in 1% FCS RPMI medium with additives (no PRL), then distributed in 96 well-plates at a density of 5×10^4 cells/well in a final volume of 100 μL. One hundred μL, of [2×] hPRL (and/or antagonist) diluted in the same medium were added after starvation period. Cell survival/proliferation was estimated after 2-3 days of hormonal stimulation by adding 10-20 μL, of WST-1 tetrazolium salt, which is metabolized by living cells (BERNICHTEIN et al., Endocrine, 20, 177-190, 2003). Optical density at 450 nm (OD450) was measured after 1-3 hours of colorimetric reaction using an ELISA plate reader. The experiments were routinely performed at least three times in triplicate or quadruplicate.
Proliferation of stable Ba/F3 cell populations was evaluated in poor medium (1% FCS) in the presence of WT hPRL, or of the PRLR antagonist De11-9-G129R-hPRL, or of AG490, for 3 days. The results are illustrated in FIGS. 12 and 13.

WT PRLR cells = experiment: Effect of PRLR inhibitors on proliferation of Ba/F3 cells expressing WT PRLR; format: cell-based, murine; conditions: no PRL, 1% FCS, 3 days
Experimental: as §1, with “([…]” for “(BERNICHTEIN”, “quadruplicate. Proliferation of stable Ba/F3 cell populations was evaluated in poor medium (1% FCS) in the presence of WT hPRL, or of the PRLR antagonist De11-9-G129R-hPRL, or of AG490, for 3 days. The results are illustrated in FIGS. 12 and 13.” for “quadruplicate.”

Ba/F3 cells [1] = experiment: Cell cycle / apoptosis of transfected Ba/F3 stable populations by FACS (propidium iodine); format: cell-based, murine; conditions: minimal medium
Text: The cell cycle of transfected Ba/F cells (stable populations) was studied by FACS analysis, using propidium iodine labelling as previously described (JEAY et al., Endocrinology 142:147-156, 2001). Cells were put in minimal medium, with or without PRL for the indicated time.

hPRL = experiment: Binding affinity of WT and mutated PRLR for hPRL, [125I]-hPRL competition with Scatchard analysis, stably transfected HEK 293 cell homogenates; parameters: species or system human; conditions: stable HEK 293 clones, overnight at room temperature
Experimental: (§2) Binding affinities of mutated PRLR for hPRL were determined using cell homogenates of stably transfected HEK 293, following a procedure previously described (KINET et al., J Biol Chem, 274, 26033-26043, 1999). Briefly, recombinant hPRL, produced in bacteria E. coli using the pT7L expression vector, and purified as described previously (PARIS et al., Biotechnol Appl Biochem, 12, 436-449, 1990), was iodinated using the Iodogen method, and its specific activity was in the range of 4-5 μCi/μg. Binding assays were performed overnight at room temperature using 150-300 μg cell homogenate protein in the presence of 20,000-30,000 cpm [^125I]-hPRL and increasing concentrations of unlabeled hPRL (competitor). Scatchard analysis was performed to determine the binding affinity of mutated PRLR and the number of PRLR per cell in stable clones or populations.

Ba/F3 cells [2] = format: cell-based, murine; conditions: 1% FCS; for constitutive proliferation / survival: absence of PRL
Experimental: Ba/F3 cells are a pro-B murine cell line dependent on IL-3 for growth. Cells were transfected by electroporation using 5-20 μg of plasmid encoding the WT or mutated human PRLR(CMV promoter), then the populations stably expressing the receptor was selected by several passages in G418-containing medium. Ba/F3-hPRLR cells were routinely maintained in RPMI 1640 medium supplemented with 10% heat-inactivated FCS, 2 mM glutamine, 50 U/mL penicillin, 50 μg/mL streptomycin, 700 μg/mL G-418 (for selection of stably transfected cells), and 10-100 ng/mL WT hPRL instead of IL-3 as the growth factor.
as §1

[3] = test system: LHRE-luciferase reporter (Stat5); experiment: LHRE-luciferase reporter assay in HEK 293 cells expressing WT or mutated hPRLR; format: cell-based, human
Text: The human PRLR cDNA inserted into the pc/DNA3 eukaryotic vector (InVitrogen, Carlsbad, Calif.) has been generated as described previously (LOCHNAN et al, Mol Cell Endocrinol 114:91-99, 1995; GOFFIN et al, J Biol Chem 271:16573-16579, 1996). The PRLR-responsive LHRE-luciferase reporter gene carries the sequence encoding the firefly luciferase gene under the control of a 6-repeat sequence of the lactogenic hormone response element (LHRE) followed by the minimal thymidine kinase promoter (GOFFIN et al., J Biol Chem, 271, 16573-16579, 1996). LHRE is the DNA binding element of the signal transducer and activator of transcription Stat5, one of the signaling proteins activated by the PRLR once it is activated (WAKAO et al, EMBO J. 13, 2182-2191, 1994).
Cells were routinely cultured in DMEM medium supplemented with 10% FCS, 2 mM glutamine, 50 U/mL penicillin, 50 μg/mL streptomycin. Cells were co-transfected, using the lipofectamine method with two or three plasmids, one encoding the receptor of interest, one encoding the LHRE-firefly luciferase vector as a reporter of PRLR-mediated a effects, and one encoding the Renilla Luciferase which is expressed in a PRL-independent manner and serves as an internal control of transfection efficiency (DOS SANTOS et al., Nat Genet, 36, 720-724, 2004).
After trypsinization, cells were counted and aliquoted in 96-well plates at a density of 50,000 cells/100 μL/well. Plating medium contained 0.5% FCS to allow cell adhesion. Six to eighteen hours (overnight) after plating, cells were stimulated by addition to each well of 100 μL of PRL (1 μg/ml) diluted in FCS-free medium. After 24 hours of stimulation, culture medium was aspirated and cells were lyzed for at least 10 minutes in 50-100 μL of lysis buffer (Promega). Luciferase activity (only firefly luciferase for stable clones, and both firefly and renilla luciferases for transient transfections) for each experimental condition was counted in 10-20 μL of cell lysates for 10 seconds using a luminometer (Lumat LB 9501, Berthold, Nashua, N.H.). […]

mutated PRLR = experiment: Binding affinity of the PRLR antagonist for mutated and WT PRLR (not shown); parameters: species or system human
Experimental: as §2
Similarly, the affinity for the pure PRLR antagonist De11-9-G129R-hPRL (BERNICHTEIN et al., J Biol Chem, 278, 35988-35999, 2003) is also identical for the mutants and the receptors (not shown).

Stat5 = Stat5 phosphorylation by immunoprecipitation and western blot in Ba/F3 populations; format: cell-based, murine
Experimental: Stat5 is the main PRLR signalling mediator, and a known anti-apoptotic factor in Baf cells. Its phosphorylation was analyzed by immunoprecipitation and western blot, using the protocol described in Example 3 for the analysis of PRLR phosphorylation.
Immunoprecipitation was performed with anti-STAT5 antibodies (c17, SantaCruz). The membranes were incubated with anti-PY antibody (4G10, Upstate), and when required re-incubated with anti-STAT5 (c17, SantaCruz) antibodies.
The results are illustrated by FIG. 16: (−)=no PRL, (+)=0,5 μg/ml PRL.

PRLR phosphorylation = experiment: PRLR tyrosine phosphorylation by immunoprecipitation and western blot in transfected HEK 293 cells; format: cell-based, human
Experimental: Receptor phosphorylation on tyrosine residues is the first step of PRLR activation.
Transient or stable transfected cells were starved overnight in FCS-free medium before hormonal stimulation. The next day, cells were stimulated (5-30 min at 37° C.) using various concentrations of WT hPRL as indicated. At the end of the stimulation, cells were washed twice with ice-cold saline buffer and cell pellets were kept frozen until used. Cells were solubilized in 0.5-1 ml lysis buffer (30 min under gentle rotation at 4° C.). Lysates were centrifuged for 10 min at 13,000×g, then supernatants were quantified for their protein content by Bradford assay and used for immunoprecipitation.
For immunoprecipitation studies, 0.5-1 mg of total lysate were incubated with anti-human PRLR (anti extracellular domain of the human PRLR, Zymed, clone 1A2B1), used at 1-5 μl/ml. After overnight rotation at 4° C., immune complexes were captured using 20 μl Protein A Sepharose slurry for 1 additional hour rotation at 4° C. Protein A complexes were precipitated by centrifugation, pellets were washed 3 times in lysis buffer and boiled in 15 μl reducing SDS sample buffer for 5 min at 95° C. Finally, immunoprecipitated samples were analysed using 7.5% SDS-PAGE. Electrophoretic transfer onto nitrocellulose membranes (Bio-Rad) was performed as described (LLOVERA et al., Oncogene, 19, 4695-4705, 2000). […]

N#CC(=Cc1ccc(O)c(O)c1)C(=O)NCc1ccccc1 [AG490, N-Benzyl-3,4-dihydroxy-benzylidenecyanoacetamide, reference compound]
inhibition of constitutive activation (proliferation) of mutant I76V (mutant I76V; 20 μM AG490, no PRL): partially inhibited | effect on basal proliferation of WT PRLR cells (WT PRLR cells): no effect

wild-type PRLR: wild-type human prolactin receptor (isoform 1), SEQ ID NO: 1, used as control
apoptosis (Ba/F3 cells [1]; absence of PRL, 30 h): 50% | effect of PRL on apoptosis (Ba/F3 cells [1]; with PRL): PRL prevents this effect | Kd (hPRL): 0.64 nM | constitutive proliferation / survival (Ba/F3 cells [2]): hardly survived | basal activity (unstimulated cells), luciferase ([3]; no PRL, compared to WT receptor): devoid of activity | fold stimulation induced by PRL ([3]; stable clones, PRL 1 μg/ml, 24 hours): 8 fold

B1: De11-9-G129R-hPRL: pure PRLR antagonist, variant of human prolactin, which interferes with the mechanism of receptor activation by PRL (protein)
chain: RCQVTLRDLFDRAVVLSHYIHNLSSEMFSEFDKRYTHGRGFITKAINSCHTSSLATPEDKEQAQQMNQKDFLSLIVSILRSWNEPLYHLVTEVRGMQEAPEAILSKAVEIEEQTKRLLERMELIVSQVHPETKENEIYPVWSGLPSLQMADEESRLSAYYNLLHCLRRDSHKIDNYLKLLKCRIIHNNNC
affinity for mutants versus WT receptor (mutated PRLR): identical | inhibition of constitutive activation (proliferation) of mutant I76V (mutant I76V; 10 μg/ml antagonist, no PRL): inhibited | effect on basal proliferation of WT PRLR cells (WT PRLR cells): no effect

B2: I76V: mutant human prolactin receptor wherein the Ile residue at position 76 is substituted by a Val residue (protein)
chain: QLPPGKPEIFKCRSPNKETFTCWWRPGTDGGLPTNYSLTYHREGETLMHECPDYITGGPNSCHFGKQYTSMWRTYVMMVNATNQMGSSFSDELYVDVTYIVQPDPPLELAVEVKQPEDRKPYLWIKWSPPTLIDLKTGWFTLLYEIRLKPEKAAEWEIHFAGQQTEFKILSLHPGQKYLVQVRCKPDHGYWSAWSPATFIQIPSDFTMNDTTVWISVAVLSAVICLIIVWAVALKGYSMVTCIFPPVPGPKIKGFDAHLLEKGKSEELLSALGCQDFPPTSDYEDLLVEYLEVDDSEDQHLMSVHSKEHPSQGMKPTYLDPDTDSGRGSCDSPSLLSEKCEEPQANPSTFYDPEVIEKPENPETTHTWDPQCISMEGKIPYFHAGGSKCSTWPLPQPSQHNPRSSYHNITDVCELAVGPAGAPATLLNEAGKDALKSSQTIKSREEGKATQQREVESFHSETDQDTPWLLPQEKTPFGSAKPLDYVEIHKVNKDGALSLLPKQRENSGKPKKPGTPENNKEYAKVSGVMDNNILVLVPDPHAKNVACFEESAKEAPPSLEQNQAEKALANFTATSSKCRLQLGGLDYLDPACFTHSFH
effect of PRL stimulation on phosphorylation of Stat5 (Stat5; 0,5 μg/ml PRL): can be increased | phosphorylation of Stat5 (Stat5; absence of PRL stimulation): moderate | Kd (hPRL): 0.44 nM | effect of PRL on proliferation (Ba/F3 cells [2]; 10 or 100 ng/ml hPRL): further increased | constitutive proliferation / survival (Ba/F3 cells [2]): moderate but significant constitutive proliferation | fold induction ([3]; transient transfections, normalized firefly/renilla luciferase): 5 fold | constitutive phosphorylation of PRLR (PRLR phosphorylation; absence of PRL stimulation): weaker | effect of PRL stimulation on PRLR phosphorylation (PRLR phosphorylation; with PRL stimulation): increased phosphorylation
